According to patent publication US20200308242A1:

Assays:
[1] = biological target: T1, IFNα receptor on GloResponse ISRE-luc2P/HEK293 cells (UniProt P17181); assay: cell-based or functional assay
T1 sequence (looked up) 1: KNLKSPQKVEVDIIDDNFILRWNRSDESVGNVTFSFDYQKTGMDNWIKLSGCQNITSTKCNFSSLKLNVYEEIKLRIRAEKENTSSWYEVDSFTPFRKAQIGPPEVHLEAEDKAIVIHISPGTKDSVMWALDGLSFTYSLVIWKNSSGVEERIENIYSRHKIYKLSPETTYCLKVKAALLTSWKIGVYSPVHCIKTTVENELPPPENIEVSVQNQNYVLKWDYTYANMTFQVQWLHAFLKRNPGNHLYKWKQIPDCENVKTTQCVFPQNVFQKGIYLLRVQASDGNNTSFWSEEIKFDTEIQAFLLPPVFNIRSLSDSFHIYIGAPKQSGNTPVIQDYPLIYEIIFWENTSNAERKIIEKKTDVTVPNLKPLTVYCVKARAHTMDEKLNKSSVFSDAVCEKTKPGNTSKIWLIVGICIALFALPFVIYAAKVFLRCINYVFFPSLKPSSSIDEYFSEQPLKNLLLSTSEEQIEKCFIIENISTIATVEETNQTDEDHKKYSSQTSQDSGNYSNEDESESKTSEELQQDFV
T1 sequence (looked up) 2: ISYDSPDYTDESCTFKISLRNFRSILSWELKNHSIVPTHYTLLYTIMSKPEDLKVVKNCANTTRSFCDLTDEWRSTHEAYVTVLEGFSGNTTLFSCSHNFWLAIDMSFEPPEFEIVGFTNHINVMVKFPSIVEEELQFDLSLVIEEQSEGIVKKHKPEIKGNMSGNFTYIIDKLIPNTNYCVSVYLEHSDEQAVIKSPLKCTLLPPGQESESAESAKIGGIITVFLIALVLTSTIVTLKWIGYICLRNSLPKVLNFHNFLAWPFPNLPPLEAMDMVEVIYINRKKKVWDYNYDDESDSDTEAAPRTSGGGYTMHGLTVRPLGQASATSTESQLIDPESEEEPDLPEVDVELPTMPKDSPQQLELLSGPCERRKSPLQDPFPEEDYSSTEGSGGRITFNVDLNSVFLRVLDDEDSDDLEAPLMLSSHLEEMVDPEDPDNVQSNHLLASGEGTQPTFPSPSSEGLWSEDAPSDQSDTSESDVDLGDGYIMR

[2] = biological target: IL-2Rβ/IL-2Rγ receptor subunits on PathHunter U2OS IL-2Rβ/IL-2Rγ/(IL-2Rα) cells (UniProt P14784); assay: cell-based or functional assay

EC50 of IL-15-induced IL-2Rβ/IL-2Rγ dimerisation (PathHunter U2OS chemiluminescence), +MMP-9 [2]	EC50, ISRE-luc2P/HEK293 luciferase reporter, +MMP9 [1]	Substance	also measured
2.84 nM	–	H16/L16-PVGLIG-hIL-15 cleaved by MMP-9 (released hIL-15) (from UniProt P40933 49-162) (ligand)	–
8.84 nM	–	NHS76-PVGLIG-hIL-15 cleaved by MMP-9 (released hIL-15) (from UniProt P40933 49-162) (ligand)	–
0.71 nM	–	Recombinant human IL-15 (from UniProt P40933 49-162) (ligand)	EC50 of IL-15-induced IL-2Rβ/IL-2Rγ dimerisation (PathHunter U2OS chemiluminescence), -MMP-9 [2]: 0.72 nM
–	0.02 nM	c9G4-PVGLIG-hIFNα2a cleaved by MMP-9 (released hIFNα2a) (from UniProt P01563 24-188) (ligand)	–

More lines, now with the values behind:

Substance	EC50 of IL-15-induced IL-2Rβ/IL-2Rγ dimerisation (PathHunter U2OS chemiluminescence), +MMP-9 [2]	EC50, ISRE-luc2P/HEK293 luciferase reporter, +MMP9 [1]	also measured
H16/L16-PVGLIG-hIFNα2a cleaved by MMP-9 (released hIFNα2a) (from UniProt P01563 24-188) (ligand)	–	–	EC50, ISRE-luc2P/HEK293 luciferase reporter, +MMP9, no pre incubation of the cells with H16/L16 antibody [1]: 0.02 nM; EC50, ISRE-luc2P/HEK293 luciferase reporter, +MMP9, pre incubation of the cells with H16/L16 antibody (to saturate IGF1-R binding sites) [1]: 0.02 nM
NHS76-PVGLIG-hIFNα2a (from UniProt P01563 23-188)	–	–	EC50, ISRE-luc2P/HEK293 luciferase reporter, -MMP9 [1]: 5.33 nM
NHS76-PVGLIG-hIFNα2a cleaved by MMP-9 (released hIFNα2a) (from UniProt P01563 24-188) (ligand)	–	0.03 nM	–
Recombinant human IFNα2a (from UniProt P01563 24-188) (ligand)	–	0.05 nM	EC50, ISRE-luc2P/HEK293 luciferase reporter, -MMP9 [1]: 0.08 nM
c9G4-PVGLIG-hIL-15 cleaved by MMP-9 (released hIL-15) (from UniProt P40933 49-162) (ligand)	2.07 nM	–	–
